Measurements reported in US20260209365A1, “ANTI-COMMON GAMMA CHAIN PROTEINS AND COMPOSITIONS OF MATTER” (SINOMAB BIOSCIENCE LIMITED, priority 2023, published 2026).

T1: human γc on cells (KHYG-1, Ramos, HPB-ALL, Jurkat, PBMC) (human) (UniProt P31785)
T1 sequence (looked up): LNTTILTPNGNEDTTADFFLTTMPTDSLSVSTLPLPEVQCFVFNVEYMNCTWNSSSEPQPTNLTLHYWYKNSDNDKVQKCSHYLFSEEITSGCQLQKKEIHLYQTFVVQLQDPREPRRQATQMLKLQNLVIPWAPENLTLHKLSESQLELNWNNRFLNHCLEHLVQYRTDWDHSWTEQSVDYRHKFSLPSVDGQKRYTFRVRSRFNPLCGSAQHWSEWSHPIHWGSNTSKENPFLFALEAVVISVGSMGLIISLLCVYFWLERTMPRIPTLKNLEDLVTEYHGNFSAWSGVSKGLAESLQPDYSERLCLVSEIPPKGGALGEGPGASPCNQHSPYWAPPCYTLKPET


Columns and labels:
[1] = biological target: T1, human γc on cells (KHYG-1, Ramos, HPB-ALL, Jurkat, PBMC) (human); assay: cell-based or functional assay
[2] = system: IL-7 induced STAT5 phosphorylation; assay: Inhibition of IL-7 induced STAT5 phosphorylation in HPB-ALL T cell line, flow cytometry; assay type: cell-based, human; details: ScFv 10 μg/ml
Description: (§1) Cells were harvested and stained with FITC conjugated anti-pSTAT6, PE conjugated anti-pSTAT3 or APC con jugated anti-pSTAT5 antibodies for flow cytometry analyses. In some embodiments, the purified ScFv could block the IL-4 induced STAT6 phosphorylation in cell culture (e.g., Ramos). In some embodiments, the purified ScFv could block the IL-7 induced STAT5 phosphorylation in cell culture (e.g., HPB-ALL). In some embodiments, the purified ScFv could block the IL-9 induced STAT3 phosphorylation in cell culture (e.g., Jurkat). In some embodiments, the purified ScFv could block the IL-15 induced STAT5 phosphorylation in cell culture (e.g., KHYG-1). In some embodiments, the purified ScFv could block the IL-21 induced STAT3 phosphorylation in cell culture (e.g., Ramos).
(§2) Flow cytometry was employed to measure the percentage of p-STAT expressing cells after cytokine induction and anti-γc ScFv treatment. KHYG-1 (Creative Bioarray, Shirley, NY 11967, USA) was starved in IL-2 free RPMI1640 (ATCC modification, ThermoFisher Scientific, Waltham, MA, USA) with 10% FBS (ThermoFisher Scientific) for 2 days. Ramos, HPB-ALL and Jurkat cell lines were used directly without starvation. Cells were replenished with fresh RPMI1640 medium and pretreated with anti-γc ScFv (10 μg/mL) for an hour. After treatment with TL-4 (10 ng/ml, Sino Biological), IL-7 (50 ng/ml, Sino Biological), IL-9 (50 ng/ml, Sino Biological), IL-15 (10 ng/ml, Sino Biological) or IL-21 (10 ng/ml, Sino Biological) for 15 min, cells were fixed in 4% paraformaldehyde (PFA, Sigma, St. Louis, Missouri, USA) for 10 min, permeabilized in 0.1% Triton X-100 (Sigma) for 10 min and then stained with FITC conjugated anti-pSTAT6, PE conjugated anti-pSTAT3 or APC con jugated anti-pSTAT5 (all diluted in 1:100, Biolegend, San Diego, California, USA) for 30 min at 37° C. Percentage of p-STAT expressing cells was measured by BD FACSLyric™ Clinical Flow Cytometry System (BD Biosciences, New Jersey, USA). Data were analyzed by Flowjo (version 10, BD).
(§3) Different cell lines were used for testing. KHYG-1 refers to the NK cell line harvested from the peripheral blood of a person with aggressive NK cell leukemia. This cell line could respond to IL-2 and IL-15 stimulation in-vitro [Yamasaki et al., Leuk Res., […]; 28 (10): 1023-31]. Ramos is a human Burkitts Lymphoma cell line (CRL-1596™) and could be used as a model for IL-4 and IL-21 studies [Hui et al., Front Immunol., 2022; 13: 919854]. Jurkat is a human T lymphoblast cell line (Clone E6-1, TIB-152™) and is widely used in the T cell studies of IL-9 function. HPB-ALL is a T cell leukemia model established from the peripheral blood of a child with ALL and thymoma at diagnosis in 1973 and could be used for IL-7 functional studies.

[3] = system: IL-15 induced STAT5 phosphorylation; assay: Inhibition of IL-15 induced STAT phosphorylation in KHYG-1 NK cell line, flow cytometry; assay type: cell-based, human; details: ScFv 10 μg/ml
Description: as §1, §2, §3

[4] = system: IL-21 induced STAT3 phosphorylation; assay: Inhibition of IL-21 induced STAT phosphorylation in Ramos B cell line, flow cytometry; assay type: cell-based, human; details: ScFv 10 μg/ml
Description: as §1, §2, §3

Molecule | p-STAT3 inhibition (%), IL-9 induced, Jurkat T cells, flow cytometry [1] [%] | p-STAT3 inhibition (%), IL-21 induced, Ramos B cells, flow cytometry [1] [%] | p-STAT5 inhibition (%), IL-7 induced, HPB-ALL T cells, flow cytometry [1] [%] | p-STAT5 inhibition (%), IL-15 induced, KHYG-1 NK cells, flow cytometry [1] [%] | p-STAT6 inhibition (%), IL-4 induced, Ramos B cells, flow cytometry [1] [%] | p-STAT5 inhibition (%) [2] [%] | p-STAT5 inhibition (%) [3] [%] | p-STAT3 inhibition (%) [4] [%]
SM-05A anti-γc ScFv (scFv, part only; not given: linker and E-tag, not shown: small tags and cut ends) scFv (part 1 of 2), part: EVQLQQSGPELVKPGASVKISCKTSGYTFTEYTMHWVKQSHGKSLEWIGGIDPYNGGATYNQRFKGKATLTVDKSSSTAYMEFRSLTSEDSAVYYCARRRLYYGNALDYWGQGTSVTVSS scFv (part 2 of 2), part: DVLMTQTPLSLPVSLGDQASISCRSSQSLVHSNGNTYLHWYLQRPGQSPKLLIYKVSSRFSGVPDRFSGSGSGTDFTLKISRVEAEDLGVYFCSQTTHVPFTFGSGTKLEIKR | 80.6 | 47.3 | 100 | 48.6 | 86.1 | – | – | –
SM-05B anti-γc ScFv (scFv, part only; not given: linker and E-tag, not shown: small tags and cut ends) scFv (part 1 of 2), part: QVQLQQSGPELVKPGASVKIFCKTSGYTFTEYTMHWVKQSHGESLEWIGGIDPNTGGATYNQKFKGKATLTADKSSSTAYMELRSLTSEDSAVYYCARRRRYYGYALDYWGQGTSVTVSS scFv (part 2 of 2), part: DVLMTQTPLSLPVSLGDQASISCRSSQSIVHSNGNTYLEWYLQKPGQSPKLLIYKVSNRFSGVPDRFSGSGSGTDFTLKISRVEAEDLGVYFCSQSTHVPWTFGGGTKLEIKR | 82.6 | 13.8 | 94.5 | 47.1 | 77 | – | – | –
SM-05C anti-γc ScFv (scFv, part only; not given: linker and E-tag, not shown: small tags and cut ends) scFv (part 1 of 2), part: QVQLQQSGPELVKPGASVKIFCKTSGYTFTEYTMHWVKQSHGESLEWIGGIDPNTGGATYNQKFKGKATLTADKSSSTAYMELRSLTSEDSAVYYCARRRRYYGYAMDYWGQGTSVTVSS scFv (part 2 of 2), part: DVVMTQTPLSLPVSLGDQASISCRSSQSLVHSNGNTYLHWYLQKPGQSPKLLIYKVSNRFSGVPDRFSGSGSGTDFTLKISRVEAEDLGIYYCFQDSHVPFTFGSGTKLEIKR | 97.9 | 29.1 | 100 | 46 | 46 | – | – | –
SM-05F anti-γc ScFv (scFv, part only; not given: linker and E-tag, not shown: small tags and cut ends) scFv (part 1 of 2), part: EVQLQQSGPELVKPGASVKIFCKTSGYTFTEYTMHWVKQSHGESLEWIGGIDPNTGGVTYNQKFKGKATLTADKSSSTAYMELRSLTSEDSAVYYCARRRRYYGYALDYWGQGTSVTVSS scFv (part 2 of 2), part: DVLMTQTPLSLPVSLGDQASISCRSSQSIVHNNGNTYLEWYLQKPGQSPKLLIYKVSNRFFGVPDRFSGSGSGTYFTLKISRVEAEDLGVYYCFQGSHVPWTFGGGTKLEIKR | 92.4 | 79 | 99.4 | 43.7 | 46 | – | – | –
SM-05E anti-γc ScFv (scFv, part only; not given: linker and E-tag, not shown: small tags and cut ends) scFv (part 1 of 2), part: EVHLQQSGPELVKPGASVKIFCKTSGYTFTEYTMHWVKQSHGESLEWIGGIDPNTGGVTYNQKFKGKATLTADKSSSTAYMELRSLTSEDSAVYYCARRRRYYGYALDYWGQGTSVTVSS scFv (part 2 of 2), part: DVLMTQTPLSLPVSLGDQASISCRSSQSIVHSNGNTYLEWYLQKPGQSPKLLIYKVSNRFSGVPDRFSGSGSGTDFTLKISSVEAEDLGVYFCSQSTHVPFMFGSGTKLEIKR | 74.3 | 60.6 | 98.3 | 47.8 | 85.6 | – | – | –
SM-05K: anti-γc antibody; CDR SEQ ID NO: 164, 166, 168, 172, 174, 176 (antibody, V domains shown, left off: another chain or arm of the molecule; small tags and cut ends) VH: EVQLLESGPELVKPGASVKISCKTSGYSFTDYFMNWVKQSHGESLEWIGGIDPNTGGVTYNQKFKGKATLTVDKSASTAYMELRSLTSEDSAVYYCARRRRYYGYAMDYWGQGTSVTVSS VL: DVLMTQTPLSLPVSLGDQASISCRSSQSIVHSNGNTYLEWYLQKPGQSPKLLIYKVSNRFSGVPDRFSGSGSGTDFTLKISRVEAEDLGVYFCSQSTHVPWTFGGGTKLEIK | – | – | – | – | – | 86.02 | 42.97 | 90.77

Second part, led by results:

p-STAT3 inhibition (%), IL-9 induced, Jurkat T cells, flow cytometry [1] [%] | p-STAT3 inhibition (%), IL-21 induced, Ramos B cells, flow cytometry [1] [%] | p-STAT5 inhibition (%), IL-7 induced, HPB-ALL T cells, flow cytometry [1] [%] | p-STAT5 inhibition (%), IL-15 induced, KHYG-1 NK cells, flow cytometry [1] [%] | p-STAT6 inhibition (%), IL-4 induced, Ramos B cells, flow cytometry [1] [%] | Molecule | p-STAT5 inhibition (%) [2] [%] | p-STAT5 inhibition (%) [3] [%] | p-STAT3 inhibition (%) [4] [%]
100 | 91 | – | 38.9 | 74.1 | SM-05I anti-γc ScFv (scFv, part only; not given: linker and E-tag, not shown: small tags and cut ends) scFv (part 1 of 2), part: QVQLQQSGAELAKPGASVKLSCKASGYTFTEYTMHWVKQSHGESLDWIGGIDPNTGGATYNQRFKGKATMTVDKSSSTAYMEFRSLTSEDSAVYYCARRRRYYGYALDNWGQGTSVTVSS scFv (part 2 of 2), part: DVLMTQTPLSLPVSLGDQASISCRSSQSIVHSNGNTYLEWYLQKPGQSPKLLIYKVSNRFSGVPDRFSGSGSGTDFTLKISRVEAEDLGVYYCFQDSHVPFTFGSGTKLEIKR | – | – | –
100 | 75.8 | 98.1 | 42.7 | 82.2 | SM-05J anti-γc ScFv (scFv, part only; not given: linker and E-tag, not shown: small tags and cut ends) scFv (part 1 of 2), part: EVQLQQSGPELVKPGASVKISCKTSGYTFTEYTMHWVKQSHGKSLEWIGGIDPYNGGITYNQRFKGKATLTVDKSSSTAYMELRSLTSEDSAVYYCARRRLYYGYALDYWGQGTSVTVSS scFv (part 2 of 2), part: DVVMTQTPLSLPVSLGDQASISCRSSQSIVHSNGNTYLEWYLQKPGQSPKLLIYKVSNRFSGVPDRFSGSGSGTDFTLKISRVEAEDLGVYYCFQGSHVPFTFGSGTKLEIKR | – | – | –
93.1 | 70.6 | 100 | 51.7 | 63.4 | SM-05H anti-γc ScFv (scFv, part only; not given: linker and E-tag, not shown: small tags and cut ends) scFv (part 1 of 2), part: QVQLQQSGPELVKPGASMNIFCKTSGYTFTEYTMHWVKQSHGESLEWIGGIDPNTGGATYNQKFKGQATLTADKSSSTAYMELRSLTSEDSAVYYCARRRRYYGYALDYWGQGTSVTVSS scFv (part 2 of 2), part: DVLMTQTPLSLPVSLGDQASISCRSSQNIIHSNGNTYLEWYLQKPGQSPKLLIYKVSNRFSGVPDRFTGSGSGTDFTLKISRVEAEDLGVYFCSQSTHVPFTFGGGTKLEIKR | – | – | –
– | 90.8 | 86 | 43 | – | SM-05K anti-γc ScFv (scFv, part only; not given: linker and E-tag, not shown: small tags and cut ends) scFv (part 1 of 2), part: EVQLLESGPELVKPGASVKISCKTSGYSFTDYFMNWVKQSHGESLEWIGGIDPNTGGVTYNQKFKGKATLTVDKSASTAYMELRSLTSEDSAVYYCARRRRYYGYAMDYWGQGTSVTVSS scFv (part 2 of 2), part: DVLMTQTPLSLPVSLGDQASISCRSSQSIVHSNGNTYLEWYLQKPGQSPKLLIYKVSNRFSGVPDRFSGSGSGTDFTLKISRVEAEDLGVYFCSQSTHVPWTFGGGTKLEIKR | – | – | –
– | – | 0 | – | – | SM-05G anti-γc ScFv (scFv, part only; not given: linker and E-tag, not shown: small tags and cut ends) scFv (part 1 of 2), part: EVQLQQSGPELVKPGASVKIFCKTSGYTFTEYTMHWVKQSHGESLEWIGGIDPNTGGVTYNQKFKGKATLTADSSSSTAYMELRNLTSEDSAVYYCARRRRYYGYALDYWGQGTSVTVSS scFv (part 2 of 2), part: DVVMTQTPLSLPVNLGDQASISCRSSQSLVHSNGNTYLDWYLQKPGQSPKLLIYKVSNRFSGVPDRFSGSGSGTYFTLNFSRVEAEDLGVYYCFQGSHVPFTFGSGTKLEIKR | – | – | –
